Key:
[1] = molecular target: T1, PDGFR-α (Homo sapiens, UniProt P16234); assay: PDGFR-α tyrosine phosphorylation in PAE cells stably expressing PDGFR-α; assay type: cell-based; details: conditioned medium from transfected COS-1 cells applied to PAE cells, 120 min on ice
T1 construct: expressed in transfected cells
Experimental: It was verified that the growth factor domain in PDGF-CC released by tPA-mediated proteolysis is an efficient PDGFR-A ligand. Conditioned media from transfected COS-1 cells were applied onto porcine aortic endothelial (PAE) cells with stable expression of PDGFR-α (FIG. 5A).
To understand the structural requirements for receptor-binding and activation of PDGF-CC, the series of truncated mutants of PDGF-CC generated above were analysed for their ability to activate PDGFR-α in PAE cells. Conditioned media containing the truncated mutants of PDGF-CC were applied onto PAE cells, and the activation of the receptors was monitored by induction of receptor tyrosine phosphorylation (FIG. 6D).
To monitor growth factor-induced tyrosine phosphorylation of PDGFR-α, serum-starved PAE cells stably expressing human PDGFR-α were incubated for 120 min on ice with conditioned medium from COS-1 cells transfected with full-length PDGF-C in the absence or presence of tPA. Alternatively, primary wild-type and tPA-deficient fibroblasts were stimulated with 100 ng/ml activated PDGF-CC protein. The cells were lysed as described previously (Li et al, 2000) and PDGFR-α was immunoprecipitated using a specific antiserum (Eriksson et al, 1992). […] Tyrosinephosphorylated receptors were detected by immunoblotting using an antiphosphotyrosine antibody (PY99, Santa Cruz). […]

[2] = molecular target: T2, latent PDGF-CC (Homo sapiens, UniProt Q9NRA1); assay: In vitro cleavage of recombinant latent PDGF-CC with purified tPA; assay type: biochemical; design: His6-tagged recombinant full-length PDGF-CC; made in house; host or cells: Sf9 insect cells, baculovirus; details: 0.2-20 μg/ml tPA, 4 hours at 37° C., CNBr activated fibrinogen
Description: (§1) A cotransfection assay was established to identify serine proteases able to cleave and activate latent PDGF-CC. Expression plasmids encoding the relevant enzymes and full-length PDGF-C were cotransfected into COS-1 cells, and aliquots of the conditioned media from the transfectants were subjected to SDS-PAGE and immunoblotting using antibodies to the growth factor domain of PDGF-C. […] As a specificity control, the ability of tPA and NT to use full-length PDGF-DD as the substrate in the cotransfection assay was analysed. […] One difference in the latter results, as compared with the results from the cotransfection assay, was that purified tPA generated a second intermediate species of 32 kDa using latent PDGF-CC as the substrate. It is possible that this intermediate is the result of digestion by plasmin contamination in the tPA preparation, since the size of the fragment is similar to that of plasmincleaved PDGF-CC previously reported (Li et al, 2000).
Recombinant latent PDGF-CC and PDGF-DD were digested with human tPA in 100 mM Tris-HCl pH 7.5, 0.1% Tween 20, and 0.1 mg/ml CNBr activated fibrinogen (Sigma) for 4 hours at 37° C. using 0.2-20 μg/ml tPA purified from human melanoma cells (T7776, Sigma). The digestions were analyzed by SDS-PAGE under reducing conditions and immunoblotted using affinity-purified antibodies against PDGF-C and PDGF-D, respectively (see above).

[3] = molecular target: T2, latent PDGF-CC; assay: Cotransfection assay in COS-1 cells: protease plus full-length PDGF-C; assay type: cell-based; design: cotransfected with full-length PDGF-C (Li et al, 2000), full-length PDGF-D (Bergsten et al, 2001); expressed in transfected cells; host or cells: COS-1 cells; details: COS-1 conditioned medium, immunoblot, 22 kDa species under reducing conditions
Description: as §1, with “2000). […]” for “2000).”
To test the endogenous expression of PDGF-CC, subconfluent AG1523 cells and primary fibroblast cultures were cultured in serum-free DMEM overnight. […] In the case of the primary cultures, total protein concentration was measured and normalized (Bradford, 1976). […]

T2 sequence (Q9NRA1 23-345): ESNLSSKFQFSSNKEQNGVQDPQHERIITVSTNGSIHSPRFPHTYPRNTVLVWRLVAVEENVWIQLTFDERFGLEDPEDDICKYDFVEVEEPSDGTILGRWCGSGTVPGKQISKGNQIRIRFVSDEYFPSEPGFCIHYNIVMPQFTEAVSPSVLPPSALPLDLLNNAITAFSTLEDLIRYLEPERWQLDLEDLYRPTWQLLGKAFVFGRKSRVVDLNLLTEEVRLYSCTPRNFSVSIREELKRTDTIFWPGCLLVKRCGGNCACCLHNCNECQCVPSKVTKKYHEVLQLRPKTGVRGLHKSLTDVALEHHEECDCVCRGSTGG
T1 sequence (P16234 24-1089): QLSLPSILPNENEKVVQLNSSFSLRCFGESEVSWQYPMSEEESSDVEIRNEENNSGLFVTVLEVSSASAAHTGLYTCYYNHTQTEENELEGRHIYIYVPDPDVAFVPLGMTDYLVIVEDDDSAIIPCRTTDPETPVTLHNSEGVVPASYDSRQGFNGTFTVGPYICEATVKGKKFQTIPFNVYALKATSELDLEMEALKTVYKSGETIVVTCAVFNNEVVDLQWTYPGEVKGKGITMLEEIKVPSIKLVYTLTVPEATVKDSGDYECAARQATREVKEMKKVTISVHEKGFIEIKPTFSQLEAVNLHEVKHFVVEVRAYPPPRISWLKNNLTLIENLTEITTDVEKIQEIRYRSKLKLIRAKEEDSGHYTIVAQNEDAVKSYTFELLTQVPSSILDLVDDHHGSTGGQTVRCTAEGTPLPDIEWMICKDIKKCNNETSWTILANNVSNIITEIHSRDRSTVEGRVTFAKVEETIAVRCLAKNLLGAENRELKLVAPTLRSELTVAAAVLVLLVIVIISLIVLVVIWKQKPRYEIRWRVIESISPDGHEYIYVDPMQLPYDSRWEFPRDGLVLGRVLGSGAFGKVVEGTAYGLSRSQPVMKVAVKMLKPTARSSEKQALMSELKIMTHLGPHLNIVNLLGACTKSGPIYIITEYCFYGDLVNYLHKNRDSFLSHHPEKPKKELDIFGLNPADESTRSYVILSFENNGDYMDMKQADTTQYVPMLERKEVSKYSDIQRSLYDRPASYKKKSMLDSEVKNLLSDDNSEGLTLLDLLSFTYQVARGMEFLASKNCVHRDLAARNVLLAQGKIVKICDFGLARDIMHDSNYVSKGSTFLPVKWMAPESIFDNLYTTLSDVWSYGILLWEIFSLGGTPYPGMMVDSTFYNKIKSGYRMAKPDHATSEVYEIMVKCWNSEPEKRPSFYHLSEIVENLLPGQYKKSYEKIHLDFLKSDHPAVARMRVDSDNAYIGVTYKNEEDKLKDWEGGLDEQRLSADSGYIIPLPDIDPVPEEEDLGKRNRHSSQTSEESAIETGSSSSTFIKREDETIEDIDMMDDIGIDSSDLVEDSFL

PDGFR-α activation (receptor tyrosine phosphorylation) [1]: failed to induce receptor activation
Substance: tPA: tissue plasminogen activator, secreted serine protease; expressed, purified from human melanoma cells or recombinant
cleavage of recombinant latent PDGF-CC by purified tPA [2]: PDGF-CC, but not PDGF-DD, is a substrate for tPA
cleavage of latent PDGF-CC by the coexpressed protease [3]: released the growth factor domain of latent PDGFCC
